According to patent publication US20190284262A1 (Memorial Sloan Kettering, published 2019):

Key:
[1] = target: T1, HLA-A*02:01 on T2 cells alone (no peptide added) (human); assay: flow cytometry, phage on T2 without peptide
T1 construct: TAP-deficient T2 cells without pulsed peptide; negative control target, and the HLA molecule whose stabilisation by peptides is read in the T2 stabilization assay; also called HLA-A*02 molecule; HLA-A2 molecule

[2] = target: T1, HLA-A*02:01 on T2 cells alone (no …); assay: flow cytometry, phage on T2 without peptide; secondary only 118, unstained 95.2
[3] = target: T2, R3 (RHAMM-R3) peptide/HLA-A*02:01 complex on T2 cells (human); assay: flow cytometry, phage on T2 + R3 peptide; secondary only 126, unstained 94.4
T2 construct: Control target of the phage staining of T2 cells; also called T2 cells pulsed with R3 peptide; RHAMM 3 (R3)

[4] = target: T1, HLA-A*02:01 on T2 cells alone (no …); assay: flow cytometry, phage on T2 without peptide; secondary only 320, unstained 91.4
[5] = target: T3, Foxp3-7 peptide/HLA-A*02:01 complex on the cell surface (human); assay: flow cytometry, phage on T2 + Foxp3-7 peptide; secondary only 318, unstained 95.8
T3 construct: also called Foxp3-7/HLA-A2 complex

T2+EW = target: T4, T2+EW (Homo sapiens, UniProt A*02:01); assay: flow cytometry, phage on T2 + EW peptide; secondary only 310, unstained 93
T4 construct: on the surface of T2 cells; irrelevant control peptide; also called EW peptide/HLA-A*02:01 complex on T2 cells; T2 pulsed with EW peptide

Row | Binder | binding result [1] | Median:FITC-A [2] | Median:FITC-A [3] | Median:FITC-A [4] | Median:FITC-A [5] | Median:FITC-A (T2+EW)
1 | (FoxP2)_#9 (scFv, also called EXT019-9; EXT019-09 scFv phage clone) scFv (VL-linker-VH-His/HA tag): SYELTQPPSVSVAPGKTARITCGGNNIGSKSVHWYQQKPGQAPVLVIYYDSDRPSGIPERFSGSNSGNTATLTISRVEAGDEADYYCQVWDSSSDHWVFGGGTKLTVLGSRGGGGSGGGGSGGGGSLEMAQVQLVQSGGGLVQPGGSLKLSCAASGFAFSGSSLHWVRQASGKGLEWVGRITSKAYNYATLYAASVKGRFTISRDDSKNTAYLQMNSLQTEDTAVYYCTQTGDSSAYWGQGTLVTVSSTSGQAGQHHHHHHGAYPYDVPDYAS | no binding | 140 | 148 | – | – | –
2 | (FoxP2)_#8 (scFv, also called EXT019-8; EXT019-08 scFv phage clone) scFv (VL-linker-VH-His/HA tag): QSVLTQPPSVSEAPRQRVTISCSGSSSNIGNNAVNWYQQLPGKAPKLLIYYDDLLPSGVSDRFSGSKSGTSASLAISGLQSEDEADYYCAAWDDSLNGPVFGTGTKVTVLGSRGGGGSGGGGSGGGGSLEMAEVQLVQSGAEVKKPGASVKVSCKASGYNFTSYGISWVRQAPGQGLEWMGWISAYNGNTNYAQKLQGRVTMTTDTSTSTAYMELRSLRSDDTAVYYCARDWDYDFLTGWDGMDVWGQGTTVTVSSTSGQAGQHHHHHHGAYPYDVPDYAS | no binding | 141 | 142 | – | – | –
3 | (FoxP2)_#4 (scFv, also called EXT019-4; EXT019-04 scFv phage clone) scFv (VL-linker-VH-His/HA tag): QPVLTQPPSVSVAPGKTARITCGGNNIGSKSVHWYQQKPGQAPVLVIYYDSDRPSGIPERFSGSNSGNTATLTISRVEAGDEADYYCQVWDSSSDHPVFGGGTKLTVLGSRGGGGSGGGGSGGGGSLEMAQVQLVQSGAEVKKPGSSVKVSCKASGGTFSSYAISWVRQAPGQGLEWMGGIIPIFGTANYAQKFQGRVTITADESTSTAYMELSSLRSEDTAVYYCARSSYWWTSDRWGQGTLVTVSSTSGQAGQHHHHHHGAYPYDVPDYAS | no binding | 147 | 145 | – | – | –
4 | (FoxP2)_#20 (scFv, also called EXT019-20 scFv phage clone) scFv (VL-linker-VH-His/HA tag): SYVLTQPPSVSVAPGKTARITCGGNNIGSKSVHWYQQKPGQAPVLVIYYDSDRPSGIPERFSGSNSGNTATLTISRVEAGDEADYYCQVWDSSSDRVVFGGGTKLTVLGSRGGGGSGGGGSGGGGSLEMAQVQLQQSGPGLVKPSQTLSLTCAISGDSISSKSAAWNWIRQSPSRGLEWLGRTYYRSKWYYEYAPSVRSRITINRDTSKNQFSLQLNSVTPEDTAVYYCARSTGTFDYWGQGTLVTVSSTSGQAGQHHHHHHGAYPYDVPDYAS | no binding | 149 | 148 | – | – | –
5 | (FoxP2)_#6 (scFv, also called EXT019-6; EXT019-06 scFv phage clone) scFv (VL-linker-VH-His/HA tag): QSVVTQPPSVSGAPGQGVTIPCTGSSSNIGAGYDVHWYQQLPGTAPKLLIYGNNNRPSGVPDRFSGSRSGSSASLAITGLQAEDEADYYCQSYDSSLSDVVFGGGTKLTVLGSRGGGGSGGGGSGGGGSLEMAEVQLVQSGAEVKKPGESLKISCKGSGYNFASEWIGWVRQMPGKGLEWMGLIYPAESEITYSPSFQGQVTISVDKSISTAYLQWSSLKASDTAMYYCARAWDANYIYMDIWGQGTLVTVSSTSGQAGQHHHHHHGAYPYDVPDYAS | no binding | 146 | 157 | – | – | –
6 | #30 (scFv, also called EXT017-30; EXT017-30 scFv phage clone) scFv: SYVLTQPPSVSVAPGQTARMTCEGSNLGSKSVHWYQQKPGQAPVLVVHDDSDRPSGIPDRFSGSKSGNTATLTISRVEAGDEADYYCQVWHSSSDHYVFGTATKVTVLGSRGGGGSGGGGSGGGGSLEMAQVQLVQSGAEVKKPGASVKVSCKASGYTFTNYYIHWVRQAPGQGLEWMGIIRPSGGITNYAQKFQGRVSMTRDTSTSTVYMELSSLRSEDTAVYYCARSWHENSGVDSWGQGTLVTVSSTSGQAGQHHHHHHGAYPYDVPDYAS | – | – | – | 354 | 1130 | 378
